# B1: mRNA-splicing (parent)
# chain: AGUUGCUGCUGGGAGCUCCAGCACAGUGAAAUGGACAGAAGGGCAGAGCAA
# Variants of: B1
# Test: exon inclusion enrichment index; higher = more inclusion; WT1 exon 5 minigene, HEK293
row,Variant,exon inclusion enrichment index
1,C6G U7C C9A U10A,0.988
2,C6G U7C C9A U10C,3.21
3,U7G C9A,1.94
4,C6A U7C G8A C9G U10C,1.39
5,C6A U7C C9A U10C U27A G28C,3.18
6,C6A U7C C9A U10C U27A G28U,2.04
7,C6A U7C C9A U10C U27A G28A,2.98
8,C6A U7C G8U C9A U10A,0.176
9,C6A U7C G8U C9A U10C,2.22
10,C6U G8C C9U U10C,1.11
11,C6A U7C C9A U10C G41U G42C,3.58
12,C6A U7C C9A U10C G41U G42U,2.65
13,C6A U7C C9A U10C G41U G42A,1.6
14,C6A U7C C9A U10C G41C,3.93
15,C6A U7C C9A U10C G41A,2.41
16,C6A U7C C9A U10C G41U,3.1
17,G8U C9U,0.3
18,G8U C9A,0.386
19,G8U C9G,0.455
20,C6A U7C C9A U10C G33C G34U,2.34
21,C6A U7C C9A U10C G33C G34C,2.01
22,C6A U7C C9A U10C G33C G34A,2.31
23,C6A U7C G8A C9A U10C,2.62
24,C6A U7C G8A C9A U10A,0.265

row,Variant,exon inclusion enrichment index
1,C6A U7C C9A U10C G33U G34U,1.05
2,C6A U7C C9A U10C G33U G34A,0.907
3,C6A U7C C9A U10C G33U G34C,1.4
4,C6A U7C C9A U10C G34C,1.79
5,C6A U7C C9A U10C G34U,1.52
6,C6A U7C C9A U10C G34A,2.27
7,G13A A14U,0.0995
8,G13A A14G,0.249
9,G13A A14C,0.227
10,C6A U7C C9A U10C G41A G42A,2.59
11,C6A U7C C9A U10C G41A G42U,2.71
12,C6A U7C C9A U10C G41A G42C,3.64
13,C6U U7C U10C,3.52
14,C6A U7G G8U C9A U10C,0.407
15,C6A U7G G8U C9A U10A,0.0118
16,C6A U7C C9A U10G,0.756
17,C6U U7A G8U C9A,0.17
18,C6G U7C,0.331
19,C6G U7G,0.0143
20,C6G U7A,0.00764
21,C6U U7C G8A U10A,0.155
22,C6U U7C G8A U10C,2.38
23,C9G U10C,0.22
24,C9G U10A,0.0101

row,Variant,exon inclusion enrichment index
1,C9G U10G,0.0139
2,C6A U7C C9A U10C U17G C18G,2.57
3,C6A U7C C9A U10C U17G C18U,1.64
4,C6A U7C C9A U10C U17G C18A,3.29
5,U7C G8A,1.44
6,U7C G8U,1.05
7,U7C G8C,1.02
8,G11C,2.05
9,G11A,0.618
10,G11U,2.22
11,C16G,0.103
12,C16U,0.0903
13,C16A,0.0656
14,C6A U7C C9A U10C G46A A47U,2.94
15,C6A U7C C9A U10C G46A A47C,3.66
16,C6A U7C C9A U10C G46A A47G,1.33
17,C6G U7G C9A,0.0321
18,G12C G13C,0.309
19,G12C G13A,1.1
20,G12C G13U,0.237
21,A14U,0.0353
22,A14C,0.099
23,A14G,0.0948
24,U7A G8A,1.49

row,Variant,exon inclusion enrichment index
1,U7A G8C,1.67
2,U7A G8U,1.83
3,C6A U7C G8C C9G U10C,2.26
4,C6A U7C C9A U10C U17G,2.68
5,C6A U7C C9A U10C U17C,3.11
6,C6A U7C C9A U10C U17A,3.36
7,C6A U7C G8C C9U U10C,2.28
8,C6G,0.0263
9,C6U,0.0511
10,C6A U7C C9A U10C U32A,3.06
11,C6A U7C C9A U10C U32G,0.701
12,C6A U7C C9A U10C U32C,4.44
13,U7A G8U C9A,0.565
14,C6A U7C C9A U10C G38U A39U,0.32
15,C6A U7C C9A U10C G38U A39C,2.79
16,C6A U7C C9A U10C G38U A39G,1.89
17,C6A U7C G8C C9A U10C,2.29
18,C6A U7C G8C C9A U10A,0.587
19,A14C G15C,0.0378
20,A14C G15A,0.0127
21,A14C G15U,0.0261
22,C6A U7C G8A C9U U10C,2.34
23,U10C G11A,1.76
24,U10C G11C,1.66

row,Variant,exon inclusion enrichment index
1,U10C G11U,2.21
2,C6A U7C G8C U10C,2.08
3,C6U C9A U10A,0.198
4,C6U C9A U10C,1.46
5,C6A U7C C9A U10C G43C C44G,4.77
6,C6A U7C C9A U10C G43C C44U,2.49
7,C6A U7C C9A U10C G43C C44A,3.8
8,G8C C9U U10C,0.579
9,C6A U7C C9A U10C U32A G33A,2.07
10,C6A U7C C9A U10C U32A G33U,3.1
11,C6A U7C C9A U10C U32A G33C,3.5
12,C6U U7C C9A U10C,3.37
13,C6U U7C C9A U10A,0.879
14,C6G U7C G8A U10A,0.0835
15,C6G U7C G8A U10C,2.05
16,C6A U7C C9A U10C G43A C44G,5.09
17,C6A U7C C9A U10C G43A C44A,4.49
18,C6A U7C C9A U10C G43A C44U,3.22
19,C6U G8U C9U,0.0925
20,G15C C16G,0.178
21,G15C C16A,0.0306
22,G15C C16U,0.0653
23,C9G,0.154
24,C9U,1.36

row,Variant,exon inclusion enrichment index
1,C9A,1.96
2,G8U,1.2
3,G8A,1.09
4,G8C,1.33
5,C16A U17G,0.0435
6,C16A U17A,0.0497
7,C16A U17C,0.0503
8,C6A U7C C9A U10C G46A,2.98
9,C6A U7C C9A U10C G46C,2.33
10,C6A U7C C9A U10C G46U,2.22
11,C6A U7C C9A U10C G43U C44A,0.0402
12,C6A U7C C9A U10C G43U C44G,0.567
13,C6A U7C C9A U10C G43U C44U,1.21
14,C6A U7C C9A U10C G34C A35C,0.445
15,C6A U7C C9A U10C G34C A35G,2.67
16,C6A U7C C9A U10C G34C A35U,0.98
17,C6A U7C C9A U10C G33A G34U,0.964
18,C6A U7C C9A U10C G33A G34C,1.06
19,C6A U7C C9A U10C G33A G34A,0.865
20,C6A U7C C9A U10C G42U,3.3
21,C6A U7C C9A U10C G42A,4.25
22,C6A U7C C9A U10C G42C,4.02
23,C6G U7C U10C,3.22
24,C16U U17C,0.038

row,Variant,exon inclusion enrichment index
1,C16U U17A,0.0567
2,C16U U17G,0.211
3,C6A U7C U10C,3.14
4,C6A U7C U10A,0.41
5,C6A U7C U10G,1.66
6,U10A G11U,2.73
7,U10A G11C,2.77
8,U10A G11A,2.02
9,U7G G8U,1.91
10,U7G G8C,2.05
11,U7G G8A,2.02
12,C6A U7C C9A U10C G46C A47C,2.51
13,C6A U7C C9A U10C G46C A47U,2.64
14,C6A U7C C9A U10C G46C A47G,3.46
15,C6A U7C C9A U10C G33C,3.45
16,C6A U7C C9A U10C G33A,0.648
17,C6A U7C C9A U10C G33U,1.97
18,C6A U7C C9A U10C G48C,2.99
19,C6A U7C C9A U10C G48U,3.83
20,C6A U7C C9A U10C G48A,3.5
21,C6A U7G,0.00565
22,C6U U7A C9A U10C,0.322
23,C6U U7A C9A U10A,0.0567

# — the RNAGym collection of RNA variant scans (doi:10.1101/gr.219683.116)
